Experimental data from paper PMC6480712.

Target: T1, human dopamine D2 long receptor (D2LR) fused C-terminally to LgBiT or SmBiT of NanoLuciferase (human), P14416
T1 chain: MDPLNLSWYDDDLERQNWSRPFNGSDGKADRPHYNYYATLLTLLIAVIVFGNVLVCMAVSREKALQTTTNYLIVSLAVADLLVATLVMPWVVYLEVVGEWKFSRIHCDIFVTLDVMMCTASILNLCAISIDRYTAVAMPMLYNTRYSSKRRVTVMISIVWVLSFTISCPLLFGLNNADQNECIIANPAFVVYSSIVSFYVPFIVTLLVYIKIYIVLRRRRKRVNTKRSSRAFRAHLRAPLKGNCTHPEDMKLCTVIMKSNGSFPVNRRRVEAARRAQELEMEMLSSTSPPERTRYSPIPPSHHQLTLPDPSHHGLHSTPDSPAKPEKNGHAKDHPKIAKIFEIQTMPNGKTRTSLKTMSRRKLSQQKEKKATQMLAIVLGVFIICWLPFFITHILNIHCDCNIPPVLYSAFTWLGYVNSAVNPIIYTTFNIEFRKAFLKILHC
Assay: split reporter (BiFC, NanoBiT); NanoBiT in HEK293T cells co-transfected with 400 ng D2LR–SmBiT, D2LR–LgBiT and increasing native (untagged) D2LR DNA (0–600 ng), without or with 10 µM spiperone; muscarinic M1 receptor co-transfected instead as control
Settings: remark: other sources report otherwise

fold increase of the luminescent signal with co-transfected native D2LR (4:4:6) against none: 20 fold | fold increase of the luminescent signal with co-transfected native D2LR (4:4:6) against none, cells treated with 10 µM spiperone: 5 fold
B1: human dopamine D2 long receptor (D2LR) fused C-terminally to LgBiT or SmBiT of NanoLuciferase, P14416-1 1-443 (receptor)
chain: MDPLNLSWYDDDLERQNWSRPFNGSDGKADRPHYNYYATLLTLLIAVIVFGNVLVCMAVSREKALQTTTNYLIVSLAVADLLVATLVMPWVVYLEVVGEWKFSRIHCDIFVTLDVMMCTASILNLCAISIDRYTAVAMPMLYNTRYSSKRRVTVMISIVWVLSFTISCPLLFGLNNADQNECIIANPAFVVYSSIVSFYVPFIVTLLVYIKIYIVLRRRRKRVNTKRSSRAFRAHLRAPLKGNCTHPEDMKLCTVIMKSNGSFPVNRRRVEAARRAQELEMEMLSSTSPPERTRYSPIPPSHHQLTLPDPSHHGLHSTPDSPAKPEKNGHAKDHPKIAKIFEIQTMPNGKTRTSLKTMSRRKLSQQKEKKATQMLAIVLGVFIICWLPFFITHILNIHCDCNIPPVLYSAFTWLGYVNSAVNPIIYTTFNIEFRKAFLKILHC
